# According to PMC2064834 (The Journal of Cell Biology, 2007):
# T1: Hs-laforin (Homo sapiens, UniProt O95278)
# T1 sequence (O95278 1-331): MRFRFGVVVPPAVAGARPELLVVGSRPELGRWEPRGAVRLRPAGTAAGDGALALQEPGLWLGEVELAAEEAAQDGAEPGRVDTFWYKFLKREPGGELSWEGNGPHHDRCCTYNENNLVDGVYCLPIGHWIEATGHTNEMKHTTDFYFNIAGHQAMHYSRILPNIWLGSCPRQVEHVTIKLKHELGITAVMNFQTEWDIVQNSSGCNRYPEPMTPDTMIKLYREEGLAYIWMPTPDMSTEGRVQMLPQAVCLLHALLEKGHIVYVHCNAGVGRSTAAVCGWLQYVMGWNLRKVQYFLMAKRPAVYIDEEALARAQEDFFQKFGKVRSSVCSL
# Assays:
# Hs-laforin = target: T1, Hs-laforin; assay: p-NPP hydrolysis, absorbance at […] nm; type: biochemical; details: pH 5.5; 37°C; 2 mM DTT; artificial substrate
# purified protein = substrate: O=[N+]([O-])c1ccc(OP(=O)(O)O)cc1; assay: purified protein; details: pH 6.0, 37°C, 2 mM DTT, artificial substrate
Km (Hs-laforin) [µM],Molecule,Km (purified protein) [µM],Vmax (purified protein) [µmol/min/mg],kcat (purified protein) [s⁻¹],kcat/Km (purified protein) [M⁻¹ s⁻¹]
323,O=[N+]([O-])c1ccc(OP(=O)(O)O)cc1 [p-NPP],–,–,–,–
–,Δ52-SEX4 (Arabidopsis thaliana) (protein) AVSESKSSSEMSGVAKDEEKSDEYSQDMTQAMGAVLTYRHELGMNYNFIRPDLIVGSCLQTPEDVDKLRKIGVKTIFCLQQDPDLEYFGVDISSIQAYAKKYSDIQHIRCEIRDFDAFDLRMRLPAVVGTLYKAVKRNGGVTYVHCTAGMGRAPAVALTYMFWVQGYKLMEAHKLLMSKRSCFPKLDAIRNATIDILTGLKRKTVTLTLKDKGFSRVEISGLDIGWGQRIPLTLDKGTGFWILKRELPEGQFEYKYIIDGEWTHNEAEPFIGPNKDGHTNNYAKVVDDPTSVDGTTRERLSSEDPELLEEERSKLIQFLETCSEAEV,410,2.41,1.54,3756
